Drawing on patent US20110300138A1 (published 2011), this text covers Inhibition of binding (%) for three molecules.

Test [1] deals with TSH receptor (TSHR) coated on tubes (human) (UniProt P16473). In words: inhibition of 125I-K1-70 IgG binding to TSHR coated tubes; negative control 0.001 µg/mL in HBD serum pool.
The target of test [2] is TSH receptor (TSHR), full length human, coated on tubes (human) (UniProt P16473). In words: inhibition of 125I-K1-18 IgG binding to TSHR coated tubes; competitor 125I-K1-18 IgG; negative control sample at 10 µg/mL in HBD serum; mean of duplicate.
In test [3] the target is TSHR (full length) coated on tubes (human) (UniProt P16473). In words: inhibition of 125I-K1-18 Fab (competitor) binding to TSHR coated tubes; negative control 0.1 µg/mL in HBD serum.
The target in test [4] is TSHR (thyroid stimulating hormone receptor), full length human (human) (UniProt P16473). Description: competitor ^125I-K1-70 IgG, TSHR coated tubes; 0.1 µg/mL in assay buffer.
In test [5] the target is TSH receptor (TSHR), full length human, coated on tubes (human) (UniProt P16473). In words: inhibition of 125I-K1-18 IgG binding to TSHR coated tubes; competitor 125I-K1-18 IgG; sample at 0.1 µg/mL in HBD serum.
The target is the same in test [6]. In words: inhibition of 125I-K1-18 IgG binding to TSHR coated tubes; competitor 125I-K1-18 IgG; sample at 0.01 µg/mL in HBD serum.
The target of test [7] is TSH receptor (full length human TSHR) (human) (UniProt P16473). Description: competition ELISA: inhibition of M22 Fab-peroxidase (competitor) binding to TSHR coated wells; test sample at 100 µg/mL diluted in assay buffer.
In test [8] the target is TSH receptor (TSHR), full length human, coated on tubes (human) (UniProt P16473). Description: inhibition of 125I-K1-18 IgG (competitor) binding to TSHR coated tubes; test sample at 0.1 µg/mL in assay buffer.
For test [9], the target named is TSH receptor (TSHR) coated on tubes (human) (UniProt P16473). In words: inhibition of 125I-K1-70 IgG binding to TSHR coated tubes; sample 1 µg/mL in HBD serum pool.
The target of test [10] is thyroid stimulating hormone receptor (TSHR), full length, coated on tubes (human) (UniProt P16473). In words: inhibition of 125I-TSH binding, TSHR coated tubes; antibody 0.1 µg/mL in assay buffer; mean of duplicate.

On to 5B3 IgG (antibody), for which the results for the Inhibition of binding (%) in test [1], in [2] and in [3] were 3.7%, -0.1% and -8.3%, respectively.

9D33 IgG (antibody): the Inhibition of binding (%) in test [4] was 24.8%; in [5], 33.8%; in test [6], 5.3%; in test [7] it was 64.1%.

B1: 5C9 IgG (antibody, from another filing, V domains shown)
VH: EVQLVESGGGLIQPGGSLRLSCAASGFTVSSNYMSWVRQAPGKGLEWVSVTYSGGSTSYADSVKGRFTISRDNSKNTLYLQMNSLRAEDTAVYYCARGGRYCSSISCYARSGCDYWGQGTLVTVSS
VL: AIQMTQSPSSLSASVGDRVTITCRASQSISNYLNWYQQKPGKAPKLLIYAASSLQSGVPSRFSGSGSGTDFTLTISSLQPEDFATYYCQQSYSSPSTTFGQGTKLEIK
With B1, the Inhibition of binding (%) in test [8] amounted to 33.4%; in test [9], 15.4%; in test [10], 21.3%.
